Test [1] has as its target human LILRB4 (human) (UniProt Q8NHJ6). Put plainly: cell-based or functional assay.
Test [2] addresses human LILRA6 protein (human) (UniProt Q6PI73). Put plainly: ELISA, LILRA6 protein.
For test [3], the target named is human LILRB4 (human) (UniProt Q8NHJ6). As to the kind of experiment: competitive FACS; competition with IO-202.
Test [4] shares this target. As to the kind of experiment: FACS. Background: A flow cytometer gives signals particle by particle.
The next test has as its target hLILRB3 (human) (UniProt O75022). As to the kind of experiment: FACS; isotype control.

In the test with human LILRB4 (human) [1], Isotype (hIgG1) (antibody) yielded an ADCP (%) at 133.3 nM, macrophages and MV-4-11 cells of 2.92%; a FcγR stimulation (TNF-α, pg/mL) of 31.6 pg/mL; a Fold change (Compared to isotype) of 1 fold; a Max cell cytotoxicity (%), ADCC on THP-1 cells of 2.75%. For the same substance, the ELISA(OD450) in test [2] was determined as 0.152 OD450.

In general, IC50 refers to the concentration that inhibits the measured activity by half. Low readings indicate greater potency, high ones weaker potency. As usually defined, the EC50 is the concentration needed to bring the measured effect to its halfway point. A lower EC50 goes with an effect from little substance. IO-202: in the test with human LILRB4 (human) [3], the concentration for half-maximal inhibition (IC50) turned out to be 3.74 nM. In the test with human LILRB4 (human) [4], this substance yielded an EC50 of 1.31 nM.

Regarding Isotype, the EC50 in the test with hLILRB3 (human) turned out to be 42 nM.

The record behind these values is US20250361295A1.
